Experiments:
[1] = molecular target: bevacizumab (human); experiment: ELISA; pH 5.5; biologic titrated and captured on coated human VEGF165; 1 ug/mL hFcRn-GST added for 1 h at room temperature (100 mM phosphate, 0.15 M NaCl, 4% skimmed milk, 0.05% Tween 20); detected with HRP-conjugated anti-GST
[2] = molecular target: aflibercept (human); experiment: as above

Sequence of recombinant hFcRn-GST (P55899 whole entry, looked up, tested part not stated): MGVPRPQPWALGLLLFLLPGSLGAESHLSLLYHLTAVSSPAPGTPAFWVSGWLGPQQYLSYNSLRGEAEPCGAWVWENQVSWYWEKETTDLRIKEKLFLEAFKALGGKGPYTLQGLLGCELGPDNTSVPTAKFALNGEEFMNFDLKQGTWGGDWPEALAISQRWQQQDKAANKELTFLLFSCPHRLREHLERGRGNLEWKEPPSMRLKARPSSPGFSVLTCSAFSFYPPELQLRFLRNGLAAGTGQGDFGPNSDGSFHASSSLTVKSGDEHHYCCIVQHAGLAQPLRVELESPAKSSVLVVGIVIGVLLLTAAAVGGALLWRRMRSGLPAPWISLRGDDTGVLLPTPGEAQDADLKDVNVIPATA
Sequence of bevacizumab (human) (heavy, as listed by the source, chain 1 of 2): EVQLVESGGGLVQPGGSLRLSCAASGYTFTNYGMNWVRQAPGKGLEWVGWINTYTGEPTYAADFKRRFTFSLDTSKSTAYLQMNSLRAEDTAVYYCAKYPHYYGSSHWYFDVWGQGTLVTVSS
Sequence of bevacizumab (human) (light, as listed by the source, chain 2 of 2): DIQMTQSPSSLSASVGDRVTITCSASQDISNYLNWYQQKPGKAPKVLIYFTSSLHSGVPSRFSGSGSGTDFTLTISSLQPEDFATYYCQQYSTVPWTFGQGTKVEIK

reduction of absorbance at D30 (capped syringe) against D0-n [1]: 18.7% | reduction of absorbance at D30 (capped syringe) against D0-n [2]: 37.5%
Substance: recombinant hFcRn-GST (from UniProt P55899 24-365) (receptor)
